Source: PMC7413564, “Phase separation of Arabidopsis EMB1579 controls transcription, mRNA splicing, and development” (PLoS Biology, 2020)

T1: Oregon Green-labeled EMB1579 (Arabidopsis thaliana, UniProt F4IS91-1 1-1340, Oregon Green label (site not stated))
T1 construct: full-length CDS amplified from seedling cDNA; phase-separated in F-buffer in the assay; also called Oregon Green-EMB1579; EMB1579 condensates; source: Sf9 insect cells (pFastBac1-EMB1579), purified (Ni-NTA, SuperDex 200 Increase), labelled with Oregon Green
T1 sequence (looked up): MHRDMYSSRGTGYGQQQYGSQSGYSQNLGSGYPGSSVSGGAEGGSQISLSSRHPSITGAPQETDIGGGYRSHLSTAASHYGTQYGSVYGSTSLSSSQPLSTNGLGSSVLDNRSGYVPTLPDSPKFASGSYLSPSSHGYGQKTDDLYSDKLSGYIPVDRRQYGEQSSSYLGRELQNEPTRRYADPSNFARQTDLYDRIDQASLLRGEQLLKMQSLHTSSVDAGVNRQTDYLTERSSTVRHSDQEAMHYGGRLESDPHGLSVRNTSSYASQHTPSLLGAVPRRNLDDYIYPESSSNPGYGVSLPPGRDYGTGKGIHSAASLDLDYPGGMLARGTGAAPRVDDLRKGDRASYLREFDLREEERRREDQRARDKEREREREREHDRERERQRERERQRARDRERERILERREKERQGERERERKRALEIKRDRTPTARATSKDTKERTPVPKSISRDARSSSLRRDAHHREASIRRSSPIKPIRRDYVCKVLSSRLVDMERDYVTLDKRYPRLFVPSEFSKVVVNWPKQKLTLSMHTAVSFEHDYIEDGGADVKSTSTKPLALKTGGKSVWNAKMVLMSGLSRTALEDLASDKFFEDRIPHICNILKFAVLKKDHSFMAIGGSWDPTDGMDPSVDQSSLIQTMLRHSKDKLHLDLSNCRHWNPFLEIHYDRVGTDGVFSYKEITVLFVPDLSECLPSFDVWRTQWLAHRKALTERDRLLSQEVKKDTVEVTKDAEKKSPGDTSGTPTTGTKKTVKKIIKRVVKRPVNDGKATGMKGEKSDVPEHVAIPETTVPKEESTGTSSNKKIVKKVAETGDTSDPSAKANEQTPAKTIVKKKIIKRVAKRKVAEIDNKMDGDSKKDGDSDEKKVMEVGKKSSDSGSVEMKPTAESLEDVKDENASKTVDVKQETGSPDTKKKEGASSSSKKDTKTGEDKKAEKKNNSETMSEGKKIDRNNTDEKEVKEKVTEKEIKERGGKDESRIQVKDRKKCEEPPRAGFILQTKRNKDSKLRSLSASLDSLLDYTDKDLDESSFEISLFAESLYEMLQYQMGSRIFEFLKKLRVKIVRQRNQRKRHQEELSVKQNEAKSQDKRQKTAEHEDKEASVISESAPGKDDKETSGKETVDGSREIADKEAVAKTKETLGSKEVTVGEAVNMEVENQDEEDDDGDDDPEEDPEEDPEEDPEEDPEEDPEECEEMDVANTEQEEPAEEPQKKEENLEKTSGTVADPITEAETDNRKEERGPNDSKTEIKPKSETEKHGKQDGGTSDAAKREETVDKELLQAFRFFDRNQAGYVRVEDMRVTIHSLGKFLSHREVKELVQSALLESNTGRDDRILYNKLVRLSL


Target: T1, Oregon Green-labeled EMB1579
Assay: recruitment into condensates in vitro (confocal fluorescence microscopy); Oregon Green-labeled EMB1579 (2.5 μM) with mCherry-DDB1B (500 nM) or mCherry-MSI4 (20 nM) in F-buffer (25 mM Hepes pH 8.0, 100 mM KCl, 100 mg/ml PEG 3350), 5 minutes, room temperature
Conditions: both partners purified

| binding result | Binder |
| --- | --- |
| binds | mCherry-DDB1B (natural protein, Arabidopsis thaliana, UniProt O49552 1-1088, looked up, DDB1B, Arabidopsis; amplified with DDB1B-EcoRI-F/DDB1B-SalI-R2 from pFGC5941-DDB1B-RFP and moved into pColdI behind mCherry; source: E. coli BL21 (DE3) (pColdI-mCherry-DDB1B), purified (Ni-NTA); not shown: mCherry, N-terminal, kept) MSVWNYAVTAQKPTCVTHSCVGNFTSPQELNLIVAKSTRIEIHLLSPQGLQTILDVPLYGRIATMELFRPHGEAQDFLFVATERYKFCVLQWDYESSELITRAMGDVSDRIGRPTDNGQIGIIDPDCRVIGLHLYDGLFKVIPFDNKGQLKEAFNIRLEELQVLDIKFLYGCTKPTIAVLYQDNKDARHVKTYEVSLKDKNFVEGPWSQNNLDNGADLLIPVPSPLCGVLIIGEETIVYCSANAFKAIPIRPSITKAYGRVDLDGSRYLLGDHAGLIHLLVITHEKEKVTGLKIELLGETSIASSISYLDNAVVFVGSSYGDSQLIKLNLQPDAKGSYVEILEKYVNLGPIVDFCVVDLERQGQGQVVTCSGAYKDGSLRIVRNGIGINEQASVELQGIKGMWSLKSSIDEAFDTFLVVSFISETRILAMNIEDELEETEIEGFLSEVQTLFCHDAVYNQLVQVTSNSVRLVSSTTRELRNKWDAPAGFSVNVATANASQVLLATGGGHLVYLEIGDGTLTEVKHVLLEYEVSCLDINPIGDNPNYSQLAAVGMWTDISVRIFVLPDLTLITKEELGGEIIPRSVLLCAFEGISYLLCALGDGHLLNFQLDTSCGKLRDRKKVSLGTRPITLRTFSSKSATHVFAASDRPAVIYSNNKKLLYSNVNLKEVSHMCPFNSAAFPDSLAIAREGELTIGTIDDIQKLHIRTIPIGEHARRICHQEQTRTFAISCLRNEPSAEESESHFVRLLDAQSFEFLSSYPLDAFECGCSILSCSFTDDKNVYYCVGTAYVLPEENEPTKGRILVFIVEEGRLQLITEKETKGAVYSLNAFNGKLLASINQKIQLYKWMLRDDGTRELQSECGHHGHILALYVQTRGDFIAVGDLMKSISLLIYKHEEGAIEERARDYNANWMTAVEILNDDIYLGTDNCFNIFTVKKNNEGATDEERARMEVVGEYHIGEFVNRFRHGSLVMKLPDSDIGQIPTVIFGTVSGMIGVIASLPQEQYAFLEKLQTSLRKVIKGVGGLSHEQWRSFNNEKRTAEAKGYLDGDLIESFLDLSRGKMEEISKGMDVQVEELCKRVEELTRLH |
| binds | mCherry-MSI4 (natural protein, Arabidopsis thaliana, UniProt O22607 1-507, looked up, MSI4, Arabidopsis; amplified with MSI4-SalI-F/MSI4-XbaI-R2 from pEZS-NL-RFP-MSI4 and moved into pColdI-mCherry; also called recombinant MSI4 protein; source: E. coli BL21 (DE3) (pColdI-mCherry-MSI4), purified (Ni-NTA); not shown: mCherry, N-terminal, kept) MESDEAAAVSPQATTPSGGTGASGPKKRGRKPKTKEDSQTPSSQQQSDVKMKESGKKTQQSPSVDEKYSQWKGLVPILYDWLANHNLVWPSLSCRWGPQLEQATYKNRQRLYLSEQTDGSVPNTLVIANCEVVKPRVAAAEHISQFNEEARSPFVKKYKTIIHPGEVNRIRELPQNSKIVATHTDSPDVLIWDVETQPNRHAVLGAANSRPDLILTGHQDNAEFALAMCPTEPFVLSGGKDKSVVLWSIQDHITTIGTDSKSSGSIIKQTGEGTDKNESPTVGPRGVYHGHEDTVEDVAFSPTSAQEFCSVGDDSCLILWDARTGTNPVTKVEKAHDADLHCVDWNPHDDNLILTGSADNTVRLFDRRKLTANGVGSPIYKFEGHKAAVLCVQWSPDKSSVFGSSAEDGLLNIWDYDRVSKKSDRAAKSPAGLFFQHAGHRDKVVDFHWNASDPWTIVSVSDDCETTGGGGTLQIWRMSDLIYRPEEEVVAELEKFKSHVMTCASKP |
